This note sets out measurements from publication PMC12395300 (ACS Central Science, 2025).

This test has as its target PD1 (as used in the ELISA) (Mus musculus, UniProt Q02242).

PD1 (as used in the ELISA), sequence (Q02242 25-288): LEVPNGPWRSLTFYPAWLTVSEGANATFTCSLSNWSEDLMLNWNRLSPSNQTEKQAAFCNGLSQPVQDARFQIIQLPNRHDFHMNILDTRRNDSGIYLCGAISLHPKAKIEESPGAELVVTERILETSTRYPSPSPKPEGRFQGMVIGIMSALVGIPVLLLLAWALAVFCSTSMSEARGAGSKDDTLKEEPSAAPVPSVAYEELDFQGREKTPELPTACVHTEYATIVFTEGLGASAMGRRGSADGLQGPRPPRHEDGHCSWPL

B1: anti-hPD1 (pembrolizumab) (antibody, V domains shown)
VH: QVQLVQSGVEVKKPGASVKVSCKASGYTFTNYYMYWVRQAPGQGLEWMGGINPSNGGTNFNEKFKNRVTLTTDSSTTTAYMELKSLQFDDTAVYYCARRDYRFDMGFDYWGQGTTVTVSS
VL: EIVLTQSPATLSLSPGERATLSCRASKGVSTSGYSYLHWYQQKPGQAPRLLIYLASYLESGVPARFSGSGSGTDFTLTISSLEPEDFAVYYCQHSRDLPLTFGGGTKVEIK
As for B1, the binding result is on record as “binds”.
